In US20230357810A1, “NEOPINONE ISOMERASE AND METHODS OF USING” (Antheia, Inc., priority 2017, published 2023):

Columns and labels:
thebaine = assay: NISO-coupled T6ODM-COR-CODM assay with thebaine as substrate, LC-MS/MS; type: biochemical; details: CODM plus NISO vs without NISO, 100 µM thebaine, 30° C., 1 hr
[1] = tested on: neopine formation in the presence of COR; assay: Neopine formation with PR10-8 mutant proteins, NISO or NISO mutants and COR (FIG. 13); type: biochemical
Protocol: Neopine formation in the presence of the mutant proteins and COR was assessed, and compared to neopine formation using COR and NISOΔ1, NISOΔ2, and NISOΔ3. In the absence of NISO, neopine constitutes about 25% of the reaction product. Neopine formation can be reduced to 5% or less in the presence of NISO. Consistent with the previous experiment, in the presence of NISOΔ1, NISOΔ2, or NISOΔ3 an increase in neopine is observed, relative to wildtype NISO. […] Thus the relatively modest sequence differences between Domains Δl, Δ2, Δ3, Δ4 of NISO and PR10-8 nevertheless are significant with respect to the ability to suppress neopine production in the presence of COR.

[2] = tested on: codeinone and morphinone substrates; assay: COR-B assay alone or together with NISO, substrate conversion and products formed (FIG. 16); type: biochemical; details: 20 mins
Protocol: Assay mixtures containing purified recombinant COR-B (~0.1 µg) alone, or purified recombinant COR-B (~0.1 µg) together with purified recombinant NISO (0.196 µg) (1:4 molar ratio), Na-ascorbate cofactor, and 1 mM NADPH, were incubated for 20 mins using one of the following substrates: codeine, neopine, morphine, neopmorphine, codeinone and morphinone. The percentages substrate conversion and products formed were determined.

[3] = tested on: Yeast strains with chromosomally integrated T6ODM; assay: Hydrocodone production in yeast strains with chromosomally integrated T6ODM (FIG. 14); type: cell-based
[4] = COR-B and NISO together vs COR-B alone

B1: NISO: neopinone isomerase polypeptide of Papaver somniferum, SEQ.ID NO: 2; recombinant, His6-tagged, from E. coli (protein, listed as Papaver somniferum)
chain: MDSVSAALVFHSSIYLCAMAHHGVSGLVGKIVTELEVNCNADEFYKILKRDEDVPRAVSDLFPPVKIAKGDGLVSGCIKEWDCVLDGKAMSGKEETTHNDETRTLRHRELEGDLMKDYKKFDSIIEVNPKPNGHGSIVTWSIEYEKMNEDSPAPFAYLASFHQNVVEVDSHLCLSE
modifications: His6 tag
notes: recombinant, His6-tagged, from E. coli
thebaine
  codeine production: increases substantially
  morphine production: increases
  neopine production: reduced
[1]; about 25% in the absence of NISO
  neopine formation (share of the reaction product): ≤ 5%
[2]; [4]
  product codeine formed from codeinone substrate: substantial increase
  product morphine formed from morphinone substrate: substantial increase
[2]; COR-B plus NISO (1:4 molar ratio) vs COR-B alone
  codeinone substrate turnover increase: ~2 fold

B2: PR10-8: PR-polypeptide of Papaver somniferum similar to NISO, SEQ.ID NO: 38 (protein, listed as Papaver somniferum)
chain: MAHHGVSGLVGKLVTQLEVNCDADEFYKIWKHHEEVPKAVSHFFPAVKVVKGDGLVSGCIKEWHYILEGKAMSAMEETTHNDETRTLHHQVVEGEVMKDYKAIASIIQVNPNPNGHGSIVTWSIEYEKMNEDSPTPFAYLEFFHQNIIDMNSHLYVGSDSHLHVDE
[1]
  ability to reduce neopine production: unable to reduce neopine production

B3: MorB: morphine reductase from Pseudomonas putida M10, SEQ.ID NO: 22, expressed in yeast (protein, listed as Papaver somniferum)
chain: MPDTSFSNPGLFTPLQLGSLSLPNRVIMAPLTRSRTPDSVPGRLQQIYYGQRASAGLIISEATNISPTARGYVYTPGIWTDAQEAGWKGVVEAVHAKGGRIALQLWHVGRVSHELVQPDGQQPVAPSALKAEGAECFVEFEDGTAGLHPTSTPRALETDEIPGIVEDYRQAAQRAKRAGFDMVEVHAANACLPNQFLATGTNRRTDQYGGSIENRARFPLEVVDAVAEVFGPERVGIRLTPFLELFGLTDDEPEAMAFYLAGELDRRGLAYLHFNEPDWIGGDITYPEGFREQMRQRFKGGLIYCGNYDAGRAQARLDDNTADAVAFGRPFIANPDLPERFRLGAALNEPDPSTFYGGAEVGYTDYPFLDNGHDRLG
[3]
  production of hydrocodone: trace amounts
